{"source": "paper PMC8809517", "about": "“Cofactor-independent RNA editing by a synthetic S-type PPR protein”", "binders": {"B1": {"name": "Cy5-rpoA-G (ssRNA)", "RNA": "AUUAGACGUGA"}, "B2": {"name": "Cy5-rpoA (ssRNA)", "RNA": "AUUACACGUGA"}, "B3": {"name": "IR-rpoA-A (ssRNA)", "RNA": "AUUAAACGUGA"}, "B4": {"name": "IR-rpoA-U (ssRNA)", "RNA": "AUUAUACGUGA"}}, "assay_in_all_cases": "high-throughput RNA pulldown from lysate on Ni-NTA beads; HRP: 50 mM Tris pH 8, 150 mM NaCl, 1 mM beta-mercaptoethanol, 50 ug/ml BSA, 3 ug/ml yeast RNA, 0.5% heparin; ITC and FP: Tris pH 8, 200 mM KCl, 5% glycerol; MST: 50 mM Tris pH 8, 200 mM NaCl, 1 mM DTT, BSA, heparin, 0.05% Tween 20", "settings_in_all_cases": "tags: N-terminal His-eGFP", "key": {"[1]": {"biological_target": "T1, GFP-9S library array, motif 4 ND N98C;D124C (synthetic construct, N98C;D124C)", "T1 chain": "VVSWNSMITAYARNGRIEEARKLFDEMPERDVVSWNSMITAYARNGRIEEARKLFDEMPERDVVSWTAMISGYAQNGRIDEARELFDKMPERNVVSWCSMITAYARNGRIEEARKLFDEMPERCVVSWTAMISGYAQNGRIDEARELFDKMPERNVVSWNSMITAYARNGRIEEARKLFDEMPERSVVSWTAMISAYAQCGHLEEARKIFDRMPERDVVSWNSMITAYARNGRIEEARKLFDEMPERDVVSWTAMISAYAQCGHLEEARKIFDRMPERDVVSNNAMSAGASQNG"}, "[2]": {"biological_target": "T2, GFP-9S library array, motif 4 ND N98P;D124E (synthetic construct, N98P;D124E)", "T2 chain": "T1 chain with C98P, C124E"}, "[3]": {"biological_target": "T3, GFP-9S library array, motif 4 ND N98C;D124T (synthetic construct, N98C;D124T)", "T3 chain": "T1 chain with C124T"}, "[4]": {"biological_target": "T4, GFP-9S library array, motif 4 ND N98W;D124T (synthetic construct, N98W;D124T)", "T4 chain": "T1 chain with C98W, C124T"}, "[5]": {"biological_target": "T5, GFP-9S library array, motif 4 ND D124E (synthetic construct, D124E)", "T5 chain": "T1 chain with C98N, C124E"}}, "note": "Numbering of substitutions follows the chain as printed."}
{"binder": "B1", "values": [{"measurement": "Kd", "setting": "[1]; label: 5' Cy5", "value": 70.5, "unit": "nM"}, {"measurement": "Kd", "setting": "[2]; label: 5' Cy5", "value": 220, "unit": "nM"}, {"measurement": "Kd", "setting": "[3]; label: 5' Cy5", "value": 85.3, "unit": "nM"}, {"measurement": "Kd", "setting": "[4]; label: 5' Cy5", "value": 50.4, "unit": "nM"}, {"measurement": "Kd", "setting": "[5]; label: 5' Cy5", "value": 276, "unit": "nM"}]}
{"binder": "B2", "values": [{"measurement": "Kd", "setting": "[1]; label: 5' Cy5", "value": 264, "unit": "nM"}, {"measurement": "Kd", "setting": "[2]; label: 5' Cy5", "value": 204, "unit": "nM"}, {"measurement": "Kd", "setting": "[3]; label: 5' Cy5", "value": 245, "unit": "nM"}, {"measurement": "Kd", "setting": "[4]; label: 5' Cy5", "value": 38.5, "unit": "nM"}, {"measurement": "Kd", "setting": "[5]; label: 5' Cy5", "value": 10.5, "unit": "nM"}]}
{"binder": "B3", "values": [{"measurement": "Kd", "setting": "[1]; label: 5' IRDye 800CW", "value": 43.7, "unit": "nM"}, {"measurement": "Kd", "setting": "[2]; label: 5' IRDye 800CW", "value": 386, "unit": "nM"}, {"measurement": "Kd", "setting": "[3]; label: 5' IRDye 800CW", "value": 150, "unit": "nM"}, {"measurement": "Kd", "setting": "[4]; label: 5' IRDye 800CW", "value": 76.1, "unit": "nM"}, {"measurement": "Kd", "setting": "[5]; label: 5' IRDye 800CW", "value": 139, "unit": "nM"}]}
{"binder": "B4", "values": [{"measurement": "Kd", "setting": "[1]; label: 5' IRDye 800CW", "value": 243, "unit": "nM"}, {"measurement": "Kd", "setting": "[2]; label: 5' IRDye 800CW", "value": 309, "unit": "nM"}, {"measurement": "Kd", "setting": "[3]; label: 5' IRDye 800CW", "value": 155, "unit": "nM"}, {"measurement": "Kd", "setting": "[4]; label: 5' IRDye 800CW", "value": 59.1, "unit": "nM"}, {"measurement": "Kd", "setting": "[5]; label: 5' IRDye 800CW", "value": 3.54, "unit": "nM"}]}
